Test results reported in the supplement of paper PMC12764529.
± gives the half width of the 95% confidence interval.

Experiments:
[1] = folding stability dG unfold (combined trypsin and chymotrypsin); higher = more stable
How it was run: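 K50 was inferred by Bayesian fitting of sequencing counts obtained after protease digestion of designed mini-proteins. Unfolding free energy was derived by comparison with a sequence-predicted unfolded-state K50 and a shared folded-state K50, for each protease or both combined. The mini-proteins were under 80 residues, had no cysteine, were carried in a PA-tagged cDNA display construct, and were kept only if AlphaFold2 dimer inter-PAE exceeded 15.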

[2] = folding stability dG unfold from trypsin proteolysis; higher = more stable
Protocol: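 Folding stability of de novo designed mini-proteins (<80 aa, no Cys; designed by TrROS, TrMRF, ProteinMPNN and the joint model) was measured by cDNA display proteolysis with trypsin and chymotrypsin. Each protease was used at 11 concentrations in a threefold dilution series plus a no-protease condition. K50 was inferred by Bayesian fitting of sequencing counts, and dG unfold was derived against a sequence-predicted unfolded-state K50 (Tsuboyama et al. method). Sequences shown include variable-length N-terminal GS-type padding (SAGGSAGG...) inside a display construct carrying a PA tag. Rows were kept only if the AF2 dimer inter-PAE was >15, to exclude likely homo-oligomers.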

Sequence	folding stability dG unfold [1] [kcal/mol]	folding stability dG unfold [2] [kcal/mol]
SAMLVVLKDPKTGKLILVDPEQLSPEYLERGVEPVREIPPLEVVEVESEEEAEEIRKKYPEKILVTLGPSAG [r14_638_JUSTAS]	-0.121 ± 0.26	0.68 ± 0.1
SAGGETEVVETNASPAELAERVAEALAAGREVTVTLPDGTVLDAGPDLADLPADTPVRLEFTPAVAASAGGS [r16_31_JUSTAS]	0.257 ± 0.17	0.841 ± 0.032
SAGGSAGGSAGGSGPEPKFTVEVDPEKDEVTFLVELEDKPLLLVVKDWPEDDPLLKNAFSAGGSAGGSAGGS [r4_328_TrMRF]	0.0825 ± 0.29	0.388 ± 0.097
SAGGSAGGSAGGSPLIVEFKGDELRNTIPSGFEVLSEERDPELGYVRAALRALGSGETLSAGGSAGGSAGGS [r4_435_TrMRF]	< -1	-0.707 ± 0.27
SAGGSAGGSAKKIDVEVDEPVPNGYYRATIRVPGPGKPIEVNVPGPWEDAERKAKELAKELSAGGSAGGSAG [r3_104_TrROS]	< -1	-0.964 ± 0.55
SMKLKITIPLPGNNEINIEIEIKPYFDPNTKKLYFEANIKVTFTYYIPGFDKPFSFTSEFKFRFELSDDLSA [r9_140_TrMRF]	> 6	4.46 ± 0.16
SAGGSAGGSENNIVIKMKMEMPNQEMKFRFPIPADKLKDALKEGKPIKFPNGMNVRITEIIPVSAGGSAGGS [r12_432_TrROS]	< -1	-0.864 ± 0.81
SAGGSAGGSAGGMTIKEIMKRFPGGGEIDITEIPGDRITIEMRFPNGNNRRRTIPPDEISAGGSAGGSAGGS [r10_612_TrROS]	-0.582 ± 0.33	-0.04 ± 0.34
SAGGSAGGSAGGKIKVVFELPDAPLFLVAEADSPEELLERAVKLEEELGVPLKVVKVEGSAGGSAGGSAGGS [r10_1087_TrMRF]	< -1	-0.509 ± 0.23
SAGGSAGGSREIKIDDFERHNGYYYITVEIKDPNNGKKRPLEIPYPPNQPNADRFAKDIADELSAGGSAGGS [r12_415_TrROS]	< -1	-0.751 ± 0.43
SAGGFKITEVEKDEKKGYPWVSIRIPPKSTLKKLKNMPGPVRIHNPEPGQWIHMPVDDPEEFLDKLLKSAGG [r13_604_TrROS]	-0.516 ± 0.94	0.274 ± 0.18
SAGGDPGAEKIGTKTYPVGDKELTIETYRLPDPDELKVVVTDPTDGKTTPITVSLSEPPNIPVAELLSAGGS [r16_768_JUSTAS]	< -1	-0.276 ± 0.16
SAGGSAGGSAGSLPEKLKEAFPDLGVTVTSVDPSGTVTVEVDGPEEVKEKVEKAVAEILKSAGGSAGGSAGG [r11_418_JUSTAS]	< -1	-0.576 ± 0.33
SAGGSSIEEIKEALKKGYNIKITPTTGTSTLVPVEELIKDPNITPETSLSDLGIKEITLIPPKNGKLVSAGG [r13_587_JUSTAS]	-0.257 ± 0.25	0.0152 ± 0.075
SAGGSAGGSAGMKIIVKSKEEAEKIAKEIAKKLGIEKKIKKIEIIVIPYKKTKDGKIEKISAGGSAGGSAGG [r17_237_TrROS_Hall]	-0.184 ± 0.61	0.36 ± 0.19
SAGGSAGGDGDFRVSIDPEELPDGQEYKISIQSPDGKPIAEIPIRIPLPPPKPERDDNGKPKPVSAGGSAGG [r6_487_TrROS]	0.216 ± 0.099	0.844 ± 0.025
SAGGMKVEVVETPTSLQIVTTTISTEKIPFNDVTLTTVTTEVKTIPLPEKPPVGLPYFDPEGKPLLLSAGGS [r8_46_JUSTAS]	-0.424 ± 0.18	-0.0171 ± 0.07
SAGGMTVTVPREGPVTEEDVEKIAAELAAQGLKEVPLVVIETEKGSLPDGRPTELVRERTYYYEYPESAGGS [r16_44_JUSTAS]	< -1	-0.307 ± 0.31
SAGGSAGGSAGGMVRFPDGKEVETESEEELEELLKGVPVEEITIEDPEEKGEKKIPVKLSAGGSAGGSAGGS [r10_1191_JUSTAS]	-0.942 ± 0.48	0.137 ± 0.044
SANFDKAPPIEVKTEVSSFPADEEKIDPKTGKKSKRKRTITPVTVTKDGKTYTSTTTTYPDGSTETTTSSAG [r14_225_JUSTAS]	-0.249 ± 0.24	-0.0456 ± 0.2
